B1: NaK, non-selective ion channel, lacking the first 19 residues (natural protein, UniProt Q81HW2 20-114, looked up)
chain: KDKEFQVLFVLTILTLISGTIFYSTVEGLRPIDALYFSVVTLTTVGDGNFSPQTDFGKIFTILYIFIGIGLVFGFIHKLAVNVQLPSILSNRKKE
notes: NaK non-selective cation channel, construct lacking the first 19 residues; model for molecular replacement was PDB 3E89; Tetrameric channel; in space group I4 the tetramer is generated from one monomer by crystal symmetry, and the two monomers of the asymmetric unit give two tetramers; also called NaK channel

Assays:
[1] = molecular target: NaK2CNG, mutant of NaK with the selectivity filter substituted to TVGDTPP, lacking the first 19 residues (UniProt Q81HW2); assay: crystal structure; MicroED (electron diffraction) of single microcrystals grown in Tris pH 8.0 and 60-80% MPD; protein in 0.2% DM with 150 mM NaCl (NaK) or 150 mM KCl (NaK2CNG); space group I4, two monomers in the asymmetric unit, tetramers generated by crystal symmetry
[2] = molecular target: the molecule itself; assay: as above

Molecule | stoichiometry N [1] | stoichiometry N [2]
NaK2CNG, mutant of NaK with the selectivity filter substituted to TVGDTPP, lacking the first 19 residues (from UniProt Q81HW2 20-114) (natural protein) | 4 | –
B1 | – | 4

From PMC12376597, “High‐Throughput MicroED for Probing Ion Channel Dynamics” (Advanced Science, 2025)
